The target of test [1] is T1, Peptide A (human PAR-2), unbiotinylated (Human).
T1 construct: also called Peptide A No Biotin
T1 peptide: GTNRSSKGRSLIGKVDGT
The experiment in a line: SPR, antibody captured. (In general: SPR reads the build-up and loss of mass on a sensor chip optically.)

Test [2] deals with T1, Peptide A (human PAR-2), unbiotinylated. The experiment in a line: peptide ELISA titration. On the procedure: (§1) Anti-PAR-2 antibodies were tested for their ability to bind to the PAR-2 peptides. Various PAR-2 Peptides (Table 3) were coated onto 96-well plates at a concentration of 2 μg/ml and incubated overnight followed by blocking in a suitable blocking agent for one hour. […] Purified anti-PAR-2 antibodies were added to the plate coated with PAR-2 peptides to a final concentration ranging from 0.2 to 2.0 μg/ml and incubated for one hour at room temperature. Detection of bound antibodies was determined with Horse-Radish Peroxidase (HRP) conjugated anti-mouse or human IgG (Jackson Immuno Research Lab, West Grove, Pa.) and developed by standard colorimetric response using tetramethylbenzidine (TMB) substrate. Absorbance was read at OD₄₅₀ for 0.1 second.
(§2) In another experiment, selected anti-PAR-2 antibodies cloned onto human IgG4 were tested for binding to unbiotinylated and biotinylated forms of PAR-2 peptides (Peptides A, E, F and G; as described above). […] Absorbance values at 450 nm were analyzed using a sigmoidal dose-response model in GraphPad Prism (GraphPad Software, Inc., La Jolla, Calif.) and EC₅₀ values were reported (Table 9). EC₅₀ values are defined as the antibody concentration required to achieve 50% maximal binding to PAR-2 peptide.

Test [3] deals with T2, Peptide A (human PAR-2), C-terminal biotinylated (Human, C-terminal biotin via G4S linker).
T2 construct: also called Peptide A C-Term
The experiment in a line: peptide ELISA titration. On the procedure:
as §1, §2
In general terms: In an ELISA, binding on a coated surface is turned into a signal by an enzyme label.

The target of test [4] is T3, Peptide G (rat PAR-2), C-terminal biotinylated (Rat (Rattus norvegicus), C-terminal biotin via G4S linker).
T3 construct: also called Peptide G C-Term
T3 peptide: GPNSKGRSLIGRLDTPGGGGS
The experiment in a line: peptide ELISA titration. On the procedure: as §1, §2

For test [5], the target named is T4, Peptide G (rat PAR-2), unbiotinylated (Rat (Rattus norvegicus)).
T4 construct: also called Peptide G No Biotin
T4 peptide: GPNSKGRSLIGRLDTP
The experiment in a line: peptide ELISA titration. As to the method: as §1, §2

For test [6], the target named is T5, Peptide A (human PAR-2), N-terminal biotinylated (Human, N-terminal biotin via G4S linker).
T5 construct: also called Peptide A N-Term
T5 peptide: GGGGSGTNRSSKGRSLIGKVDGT
The test can be described thus: peptide ELISA titration. On the procedure: as §1, §2

Test [7] has as its target T6, Peptide E (mouse PAR-2), unbiotinylated (Mouse (Mus musculus)).
T6 construct: also called Peptide E No Biotin
T6 peptide: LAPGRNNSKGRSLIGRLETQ
The test can be described thus: peptide ELISA titration. On the procedure:
as §1, §2

Test [8] has as its target T7, Peptide G (rat PAR-2), N-terminal biotinylated (Rat (Rattus norvegicus), N-terminal biotin via G4S linker).
T7 construct: also called Peptide G N-Term
T7 peptide: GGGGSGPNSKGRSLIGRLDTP
The experiment in a line: peptide ELISA titration. On the procedure: as §1, §2

Test [9] deals with T8, Peptide F (monkey PAR-2), N-terminal biotinylated (Monkey (Macaca mulatta), N-terminal biotin via G4S linker).
T8 construct: also called Peptide F N-Term
The test can be described thus: peptide ELISA titration. On the procedure: as §1, §2

Test [10] concerns the target T9, Peptide E (mouse PAR-2), N-terminal biotinylated (Mouse (Mus musculus), N-terminal biotin via G4S linker).
T9 construct: also called Peptide E N-Term
T9 peptide: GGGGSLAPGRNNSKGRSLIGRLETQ
The experiment in a line: peptide ELISA titration. As to the method: as §1, §2

Test [11] has as its target T10, full length human PAR-2 (human, UniProt P55085 26-397).
T10 construct: overexpressed on HEK293-derived 293/D9 cells; also called 293/D9/hPAR-2rec cells
The experiment in a line: MSD cell binding. As to the method:
HEK293 cells were transfected with an NF-κB-luciferase-IRES-eGFP reporter plasmid. […] A clonal cell line, named D9, having low background levels of luciferase activity and high levels of eGFP when induced with IL-1β was made by a series of successive sorts of cell populations using flow cytometry. The 293/D9 cell line was then separately transfected with human PAR-2 or mouse PAR-2 to create the stable cell lines 293/D9/h PAR-2rec and 293/D9/m PAR-2rec, respectively.
Cells were plated on MSD high-bind 96 well plates at a density of 4×10⁴ cells/well in PBS and incubated for one hour at room temperature. Cells were then blocked in PBS with 2% BSA and incubated at room temperature for one hour. Anti-PAR-2 antibodies (ranging from 100 nM to 0.098 nM) were serially diluted two-fold in PBS with 0.5% BSA and incubated with the cells for one hour at room temperature followed by washing in PBS with 0.5% BSA. Sulfo-tagged anti-human IgG antibody (MSD) at a concentration of 0.1 μg/ml was then added to the cell/antibody mixture and incubated at room temperature for an additional hour. After another wash, a 1× non-surfactant containing read buffer was added and electro-chemiluminescent signal was read on the MSD Sector Imager. Signal of antibody binding to 293/D9 cells was subtracted from signal to 293/D9/hPAR-2rec or 293/D9/mPAR-2rec cells. Subtracted data were analyzed using a sigmoidal dose-response model in GraphPad Prism and EC₅₀ and Bₘₐₓ values were reported (Table 18). EC₅₀ values are defined as the antibody concentration required to achieve 50% maximal binding (Bₘₐₓ) to cells.

In test [12] the target is T10, full length human PAR-2. The experiment in a line: cell-based or functional assay.
Test [13] addresses T1, Peptide A (human PAR-2), unbiotinylated. The test can be described thus: SPR, antibody captured, steady state. On the procedure: (§3) Equilibrium dissociation constants (KD values) for antigen binding to selected purified PAR-2 antibodies were determined by surface kinetics using a real-time surface plasmon resonance biosensor assay. Antibody was captured on either a rabbit anti-mouse IgG polyclonal antibody (GE Healthcare, Piscataway, N.J.) surface or a goat anti-human IgG polyclonal antibody (Jackson Immuno Research Lab, West Grove, Pa.) surface created through direct amine chemical coupling to a BIACORE™ CM5 sensor chip to form a captured antibody surface. […] Antigen-antibody binding and dissociation were monitored in real time at room temperature. Kinetic analysis was performed to calculate KD and half-life of antigen/antibody complex dissociation (Table 10). For those antibodies where no T_{1/2} value is shown, steady state analysis was used to calculate the KD value. NB: no binding observed under current experimental conditions. ND: not determined.

In test [14] the target is T11, Peptide B (human PAR-2), unbiotinylated (Human).
T11 construct: also called Peptide B No Biotin
T11 peptide: SLIGKVDGTSHVTG
The test can be described thus: SPR, antibody captured; SPR at room temperature, monomeric peptide 15.6-250 nM injected over captured antibody. As to the method:
as §3

For test [15], the target named is T1, Peptide A (human PAR-2), unbiotinylated. The test can be described thus: peptide ELISA.
In test [16] the target is T12, Peptide C (human PAR-2), C-terminal biotinylated (Human).
T12 construct: also called Peptide C C-Term
T12 peptide: SLIGKVGGGGS-biotin
The test can be described thus: peptide ELISA.

For test [17], the target named is T2, Peptide A (human PAR-2), C-terminal …. The test can be described thus: peptide ELISA.
The target of test [18] is T5, Peptide A (human PAR-2), N-terminal …. The test can be described thus: peptide ELISA.
The target in test [19] is T13, Peptide C (human PAR-2), N-terminal biotinylated (Human).
T13 construct: also called Peptide C N-Term
T13 peptide: Biotin-GGGGSSLIGKV
The test can be described thus: peptide ELISA.

As usually defined, the Kd is the concentration at which binding is half-saturated. As usually defined, the EC50 is the concentration needed to bring the measured effect to its halfway point.

Where no end group is shown, it is not given here. The star is where a group is joined. Biotin = O=C1N[C@H]2[C@H](CS[C@H]2CCCCC(=O)*)N1

T10 sequence (P55085 26-397 G138A limits assumed): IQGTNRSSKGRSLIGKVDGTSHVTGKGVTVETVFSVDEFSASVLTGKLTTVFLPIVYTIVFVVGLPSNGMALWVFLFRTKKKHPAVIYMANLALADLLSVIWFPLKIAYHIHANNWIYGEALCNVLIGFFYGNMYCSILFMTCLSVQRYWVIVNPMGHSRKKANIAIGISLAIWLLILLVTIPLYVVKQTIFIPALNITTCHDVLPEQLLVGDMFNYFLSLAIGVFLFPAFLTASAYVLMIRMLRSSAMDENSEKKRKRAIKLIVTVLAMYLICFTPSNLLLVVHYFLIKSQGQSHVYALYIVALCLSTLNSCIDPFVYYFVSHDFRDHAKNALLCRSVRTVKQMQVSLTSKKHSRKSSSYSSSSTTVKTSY
T8 sequence (peptide, as listed by the source): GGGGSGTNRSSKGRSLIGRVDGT

B1: H4H580P (antibody, human IgG4, V domains shown)
VH: QVQLVESGGGVVQPGRSLRLSCVASGFTFSRYGMHWVRQAPGKGLEWVVVISYDGINKYYADSVKGRFTISRDNSKNTVYLQMNSLRAEDTAVYHCAKGDFWSGYFDYWGQGTLVTVSS
VL: DIVMTQTPLSSPVTLGQPASISCRSSQSLVHSDGNTYLSWLHQRPGQPPRLLIYKISNRFSGVPDRFSGSGAGTDFTLQISRVEAEDVGIYYCMQATQFPTFGGGTKVEIK
notes: also called H1H580P variable regions
As for B1, the Kd in test [1] was determined as 103 nM. In test [1], this molecule showed a T1/2 of 52.8 s. The EC50 was determined as 0.09 nM in test [2]; 0.202 nM in test [3]; 0.1 nM in [4]; 0.139 nM in test [5]; 0.16 nM in test [6]; 2.53 nM in [7]. For the same molecule, the EC50 stood at 0.142 nM in test [8], 0.148 nM in test [9], 0.932 nM in test [10] and 8.69 nM in test [11]. The molecule also returned a Bmax in test [11] of 30200 MSD Unit. Further, the “IC50, NF-kB-luciferase, 20 nM Trypsin” value in test [12] was determined as 3.5 nM.

B2: H4H573P (antibody, human IgG4, V domains shown)
VH: EVQLVESGGGLVQPGRSLRLSCAASGFTFDDYAMHWVRQGPGKGLEWVSGISWNGGSAGYADSVKGRFTISRDNAKNSLYLQLNSLRAEDTALYYCAKEDYAFDIWGQGTMVTVSS
VL: not shown
notes: also called H1H573P variable regions
As to B2, the Kd in test [13] was 749 nM. Besides, the EC50 amounted to 0.093 nM in [2]; 0.022 nM in [3]; 10.1 nM in test [4]; 0.014 nM in test [5]; 0.093 nM in [6]; 0.355 nM in [7]. For the same molecule, the EC50 is 0.017 nM in test [8], 0.018 nM in test [9] and 0.016 nM in test [10].

B3: H2M610N (antibody, V domains shown)
VH: EVQLVESGGNLVQPGRSLRLSCAASGFTFDDYAMHWVRQAPGKGLEWVSGISWNSGSRGYADSVKGRFTISRDNAKNSLYLQMNSLRTEDTAFYYCTKEDEAFDYWGQGTLVTVSS
VL: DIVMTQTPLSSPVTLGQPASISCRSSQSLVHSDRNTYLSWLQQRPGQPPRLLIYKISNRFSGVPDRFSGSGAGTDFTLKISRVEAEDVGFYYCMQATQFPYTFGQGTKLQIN
notes: chimeric: human variable, mouse constant domains
As to B3, the Kd in test [13] worked out at 71.3 nM; in test [14], 360 nM. This molecule also returned a T1/2 in test [14] of 48 s. Besides, the OD450 was 1 to 4 od in test [15]; 0 to 0.09 od in test [16]; 1 to 4 od in [17]; 1 to 4 od in [18]; 0 to 0.09 od in [19].

B4: H4H578P (antibody, human IgG4, V domains shown)
VH: QVQLVESGGGVVQPGMSLRLSCAASGFTFRRYGMHWVRQAPGKGLEWVAVIWYDGSNKYYVDSVKGRFTISRDNSKNTLYLQMNSLRAEDTAVYYCASEITVGDWFDPWGQGTLVTVSS
VL: AIQMTQSPSSLSASVGDRVTITCRASQGIRNDLGWYQQKPGKAPKLLIYAASSLHSGVPSRFSGSGSGTDFTLTISSLQPEDFATYYCLQDFNYPLTFGGGTKVEIK
notes: also called H1H578P variable regions
Consider B4, for which, in test [1], the affinity, expressed as Kd, was 245 nM. Further, in [1], the T1/2 turned out to be 10.2 s. The concentration giving a half-maximal response (EC50) stood at 0.034 nM in test [2]; 0.04 nM in test [3]; 0.046 nM in test [5]; 0.062 nM in [6]; 2.78 nM in test [7]; 0.081 nM in test [8]. The EC50 in test [9] is 0.036 nM; in [10], 0.09 nM.

Values taken from US20110059095A1 (Regeneron, published 2011).
